Tests used:
[1] = target: GST-LE, dual phosphorylated (CK2 plus Syk, 2 added phosphates) (encephalomyocarditis virus (EMCV)); assay: SEC
[2] = target: GST-LE, singly phosphorylated (reacted with CK2, 1 added phosphate) (encephalomyocarditis virus (EMCV)); assay: pull-down
[3] = target: GST-LE, dual phosphorylated (CK2 plus Syk, 2 added phosphates) (encephalomyocarditis virus (EMCV)); assay: pull-down

GST-LE, dual phosphorylated (CK2 plus Syk, 2 added phosphates) (encephalomyocarditis virus (EMCV)), sequence (P03304 1-67 limits assumed): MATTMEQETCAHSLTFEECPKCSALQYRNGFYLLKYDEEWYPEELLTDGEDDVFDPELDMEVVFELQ
GST-LE, singly phosphorylated (reacted with CK2, 1 added phosphate) (encephalomyocarditis virus (EMCV)), sequence (P03304 1-67 limits assumed): as above

rCrm1 (recombinant His-tagged murine Crm1) (from UniProt Q6P5F9 1-1071) (natural protein)
stoichiometry N [1]: 1 | percent stronger rCrm1 signal per unit of GST(-LE) than without phosphate [2]: 50 to 70% | percent stronger rCrm1 signal per unit of GST(-LE) than without phosphate [3]: 50 to 70%

Source: PMC4679524
